T1: Gal-NCoR (ID1 + ID2 + ID3, mouse NCoR from 1629 to the C terminus) (mouse, UniProt Q60974 1629-2453)
T1 construct: mouse NCoR from 1629 to the C terminus (ID1 + ID2 + ID3), in the vector pM (Clontech); Plasmid provided by A. Le Maire (CBS, CNRS); also called NCoR wt; source: HEK293T cells, transfected (mammalian two-hybrid fusion)
T1 sequence (looked up): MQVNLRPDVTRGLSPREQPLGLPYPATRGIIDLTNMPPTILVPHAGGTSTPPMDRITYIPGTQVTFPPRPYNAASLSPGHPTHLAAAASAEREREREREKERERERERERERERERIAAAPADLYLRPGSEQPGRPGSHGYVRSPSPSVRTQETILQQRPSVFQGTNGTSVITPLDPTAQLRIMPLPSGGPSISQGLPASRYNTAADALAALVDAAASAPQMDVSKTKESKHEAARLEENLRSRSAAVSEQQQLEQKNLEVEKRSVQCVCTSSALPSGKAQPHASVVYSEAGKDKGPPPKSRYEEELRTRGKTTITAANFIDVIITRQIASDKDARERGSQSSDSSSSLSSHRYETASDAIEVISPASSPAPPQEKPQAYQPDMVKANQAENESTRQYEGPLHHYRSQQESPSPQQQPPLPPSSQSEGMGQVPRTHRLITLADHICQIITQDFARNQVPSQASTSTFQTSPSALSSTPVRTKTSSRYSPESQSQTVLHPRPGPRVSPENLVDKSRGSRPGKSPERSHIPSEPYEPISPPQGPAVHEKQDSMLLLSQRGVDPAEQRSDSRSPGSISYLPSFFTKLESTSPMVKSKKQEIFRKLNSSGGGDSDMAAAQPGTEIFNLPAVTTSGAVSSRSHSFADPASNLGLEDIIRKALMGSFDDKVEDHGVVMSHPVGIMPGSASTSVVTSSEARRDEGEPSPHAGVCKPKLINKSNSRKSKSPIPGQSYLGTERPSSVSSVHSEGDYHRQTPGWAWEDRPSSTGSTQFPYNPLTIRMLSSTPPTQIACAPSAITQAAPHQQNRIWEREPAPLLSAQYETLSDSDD

T2: Gal-PGC1-α (mouse PGC1-α 136-340) (mouse, UniProt O70343 136-340)
T2 construct: mouse PGC1-α, amino acids 136 to 340, in the vector pM (Clontech); holds ID1 LKKLL (residues 142-146); also called PGC1-α wt; Gal4-PGC1-α; source: COS-7 cells, transfected (mammalian two-hybrid fusion)
T2 sequence (looked up): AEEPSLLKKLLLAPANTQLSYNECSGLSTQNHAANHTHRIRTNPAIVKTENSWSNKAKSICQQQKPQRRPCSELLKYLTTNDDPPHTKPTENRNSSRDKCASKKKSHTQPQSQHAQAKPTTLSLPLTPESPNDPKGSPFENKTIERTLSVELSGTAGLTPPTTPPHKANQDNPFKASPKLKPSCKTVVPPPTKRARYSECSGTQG

T3: Gal-TIF2 (three interaction domains, human TIF2 624-869) (human, UniProt Q15596 624-869)
T3 construct: also called TIF2 wt; source: COS-7 cells, transfected (mammalian two-hybrid fusion)
T3 sequence (looked up): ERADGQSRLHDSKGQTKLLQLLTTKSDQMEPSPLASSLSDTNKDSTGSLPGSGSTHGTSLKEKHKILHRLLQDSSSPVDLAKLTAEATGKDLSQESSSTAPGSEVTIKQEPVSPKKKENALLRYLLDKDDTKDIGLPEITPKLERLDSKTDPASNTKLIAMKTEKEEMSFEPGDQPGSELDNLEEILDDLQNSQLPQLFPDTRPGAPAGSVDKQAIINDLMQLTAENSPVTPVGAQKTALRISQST

B1: PPARγ LBD (aa207-aa477), purified (domain or fragment, UniProt P37231-2 207-477, looked up)
chain: ESADLRALAKHLYDSYIKSFPLTKAKARAILTGKTTDKSPFVIYDMNSLMMGEDKIKFKHITPLQEQSKEVAIRIFQGCQFRSVEAVQEITEYAKSIPGFVNLDLNDQVTLLKYGVHEIIYTMLASLMNKDGVLISEGQGFMTREFLKSLRKPFGDFMEPKFEFAVKFNALELDDSDLAIFIAVIILSGDRPGLLNVKPIEDIQDNLLQALELQLKLNHPESSQLFAKLLQKMTDLRQIVTEHVQLLQVIKKTETDMSLHPLLQEIYKDLY
notes: also called PPARγ wt; PPARγ wild-type
B2: VP16-PPARγ (LBD region of PPARγ fused to the VP16 transactivation domain) (domain or fragment, UniProt P37231 238-503, looked up)
chain: DLRALAKHLYDSYIKSFPLTKAKARAILTGKTTDKSPFVIYDMNSLMMGEDKIKFKHITPLQEQSKEVAIRIFQGCQFRSVEAVQEITEYAKSIPGFVNLDLNDQVTLLKYGVHEIIYTMLASLMNKDGVLISEGQGFMTREFLKSLRKPFGDFMEPKFEFAVKFNALELDDSDLAIFIAVIILSGDRPGLLNVKPIEDIQDNLLQALELQLKLNHPESSQLFAKLLQKMTDLRQIVTEHVQLLQVIKKTETDMSLHPLLQEIYKD
notes: plasmid provided by A. Le Maire (CBS, CNRS); also called PPARγ wt; source: COS-7 or HEK293T cells, transfected (mammalian two-hybrid fusion)
B3: His tagged PGC1-α (aa138-aa341) (domain or fragment, UniProt O70343 138-341, looked up)
chain: EPSLLKKLLLAPANTQLSYNECSGLSTQNHAANHTHRIRTNPAIVKTENSWSNKAKSICQQQKPQRRPCSELLKYLTTNDDPPHTKPTENRNSSRDKCASKKKSHTQPQSQHAQAKPTTLSLPLTPESPNDPKGSPFENKTIERTLSVELSGTAGLTPPTTPPHKANQDNPFKASPKLKPSCKTVVPPPTKRARYSECSGTQGS
modifications: FITC (fluorescein isothiocyanate) label in the fluorescence anisotropy assay; unlabelled in the pull-down
notes: PGC1-α aa138-aa341; source: E. coli BL21 (DE3)
B4: GST-tagged TIF2 (aa563-aa757) (domain or fragment, UniProt Q15596 563-757, looked up)
chain: QNSPVNMNPPPLSKMGSLDSKDCFGLYGEPSEGTTGQAESSCHPGEQKETNDPNLPPAVSSERADGQSRLHDSKGQTKLLQLLTTKSDQMEPSPLASSLSDTNKDSTGSLPGSGSTHGTSLKEKHKILHRLLQDSSSPVDLAKLTAEATGKDLSQESSSTAPGSEVTIKQEPVSPKKKENALLRYLLDKDDTKDI
modifications: FITC (fluorescein isothiocyanate) label in the fluorescence anisotropy assay; unlabelled in the pull-down
notes: TIF2 aa563-aa757; source: E. coli BL21 (DE3)

Assay [1] concerns the target VP16-PPARγ (LBD region of PPARγ fused to the VP16 transactivation domain) (UniProt P37231). As to the kind of experiment: mammalian two-hybrid assay. The settings on record: for response: read off a plot; for other: Fold activation / other: Dissociation ratio: Rosiglitazone against no treatment.
For assay [2], the target named is Gal-SMRT (ID1 + ID2, human SMRT from 982 to the C terminus) (human). The experiment in a line: two-hybrid; mammalian two-hybrid in Hek293T cells (corepressors): Gal4 DBD-corepressor + VP16-PPARγ LBD + pGRE-LUC + Renilla control; with or without 1 μM Rosiglitazone for 24 h; interaction rate = luminescence divided by that of the corepressor without PPARγ.
In assay [3] the target is T4, GST-tagged SMRT (aa2041-aa2359) (UniProt Q9Y618 2041-2359, FITC (fluorescein isothiocyanate) label in the fluorescence anisotropy assay; unlabelled in the pull-down).
T4 construct: SMRT aa2041-aa2359; source: modified E. coli BL21(DE3) strain
The experiment in a line: fluorescence polarisation; fluorescence anisotropy: PPARγ wt, S273A or S273D (200 μM to 6 nM) titrated into FITC-labelled affinity purified corepressor, in the elution buffer of the corepressor; Kd from a Hill model. The conditions noted are these: both partners purified.

Assay [4] deals with Gal-SMRT ID2m (human). The experiment in a line: two-hybrid; mammalian two-hybrid in Hek293T cells (corepressors): Gal4 DBD-corepressor + VP16-PPARγ LBD + pGRE-LUC + Renilla control; with or without 1 μM Rosiglitazone for 24 h; interaction rate = luminescence divided by that of the corepressor without PPARγ.
Assay [5] addresses T1, Gal-NCoR (ID1 + ID2 + ID3, mouse NCoR …). The experiment in a line: two-hybrid; as a2 (Hek293T cells, corepressors) with co-transfected pCDNA-CDK5 (CDK5 and P35). The settings on record: partners not purified.
Assay [6] shares this target. The experiment in a line: two-hybrid; mammalian two-hybrid in Hek293T cells (corepressors): Gal4 DBD-corepressor + VP16-PPARγ LBD + pGRE-LUC + Renilla control; with or without 1 μM Rosiglitazone for 24 h; interaction rate = luminescence divided by that of the corepressor without PPARγ. The conditions noted are these: partners not purified.
The target in assay [7] is T2, Gal-PGC1-α (mouse PGC1-α 136-340). As to the kind of experiment: two-hybrid; mammalian two-hybrid in COS-7 cells (coactivators): Gal4 DBD-coactivator + VP16-PPARγ LBD + pGRE-LUC + Renilla control; with or without 1 μM Rosiglitazone for 24 h; interaction rate = luminescence divided by that of the empty Gal4 vector. The conditions noted are these: partners not purified.

The target of assay [8] is T5, Gal-TRAP220 (ID1 + ID2, human TRAP220 404-654) (human, UniProt Q15648 404-654).
T5 construct: human TRAP220, amino acids 404 to 654 (ID1 + ID2), in the vector pM (Clontech); source: COS-7 cells, transfected (mammalian two-hybrid fusion)
The assay is described as above. The settings on record: partners not purified.

Assay [9] concerns the target T3, Gal-TIF2 (three interaction domains, …). The description is as above. The settings on record: partners not purified.
For assay [10], the target named is T2, Gal-PGC1-α (mouse PGC1-α 136-340). As to the kind of experiment: two-hybrid; as a1 (COS-7 cells, coactivators) with co-transfected pCDNA-CDK5 (CDK5 and P35). The conditions noted are these: partners not purified.
Assay [11] deals with B1. The experiment in a line: fluorescence polarisation; fluorescence anisotropy: PPARγ wt, S273A or S273D (200 μM to 6 nM) titrated into FITC-labelled affinity purified coactivator, in the elution buffer of the coactivator, with Rosiglitazone (3× molar excess); Kd from a Hill model. The settings on record: both partners purified. In general terms: In fluorescence polarisation assays a small probe gives low polarisation when free and higher when bound to something large.

The target of assay [12] is B1. The experiment in a line: pull-down; coactivators: extract of His tagged PGC1-α on TALON resin or of GST-tagged TIF2 on Glutathione Sepharose, washed; then purified tag-free PPARγ or S273A, pre-incubated 20 min with rosiglitazone, 2 h at 4°C; eluate blotted with anti-PPARγ. The conditions noted are these: both partners purified.

By Kd is commonly meant the concentration at which binding is half-saturated. The low end stands for a tighter complex, the high end for a looser complex.

T5 sequence (Q15648 404-654): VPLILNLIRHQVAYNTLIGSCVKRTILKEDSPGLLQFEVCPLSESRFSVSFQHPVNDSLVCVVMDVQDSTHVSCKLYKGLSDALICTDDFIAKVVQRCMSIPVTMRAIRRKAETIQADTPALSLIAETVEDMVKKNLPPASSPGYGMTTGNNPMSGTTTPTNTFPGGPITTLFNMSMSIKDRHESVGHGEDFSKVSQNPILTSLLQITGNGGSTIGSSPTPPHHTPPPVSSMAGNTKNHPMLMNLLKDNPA
T4 sequence (Q9Y618 2041-2359): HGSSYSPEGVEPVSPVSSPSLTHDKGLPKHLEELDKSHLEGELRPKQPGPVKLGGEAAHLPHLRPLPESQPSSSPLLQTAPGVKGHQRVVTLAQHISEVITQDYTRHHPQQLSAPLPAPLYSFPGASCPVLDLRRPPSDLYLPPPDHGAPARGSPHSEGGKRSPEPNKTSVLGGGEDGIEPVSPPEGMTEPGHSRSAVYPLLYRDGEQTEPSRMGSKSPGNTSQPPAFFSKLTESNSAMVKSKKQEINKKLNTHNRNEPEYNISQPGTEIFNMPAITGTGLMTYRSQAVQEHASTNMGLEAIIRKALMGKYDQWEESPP
Chain of Gal-SMRT (ID1 + ID2, human SMRT from 982 to the C terminus) (human) (Q9Y618 whole entry, the tested form may be a part): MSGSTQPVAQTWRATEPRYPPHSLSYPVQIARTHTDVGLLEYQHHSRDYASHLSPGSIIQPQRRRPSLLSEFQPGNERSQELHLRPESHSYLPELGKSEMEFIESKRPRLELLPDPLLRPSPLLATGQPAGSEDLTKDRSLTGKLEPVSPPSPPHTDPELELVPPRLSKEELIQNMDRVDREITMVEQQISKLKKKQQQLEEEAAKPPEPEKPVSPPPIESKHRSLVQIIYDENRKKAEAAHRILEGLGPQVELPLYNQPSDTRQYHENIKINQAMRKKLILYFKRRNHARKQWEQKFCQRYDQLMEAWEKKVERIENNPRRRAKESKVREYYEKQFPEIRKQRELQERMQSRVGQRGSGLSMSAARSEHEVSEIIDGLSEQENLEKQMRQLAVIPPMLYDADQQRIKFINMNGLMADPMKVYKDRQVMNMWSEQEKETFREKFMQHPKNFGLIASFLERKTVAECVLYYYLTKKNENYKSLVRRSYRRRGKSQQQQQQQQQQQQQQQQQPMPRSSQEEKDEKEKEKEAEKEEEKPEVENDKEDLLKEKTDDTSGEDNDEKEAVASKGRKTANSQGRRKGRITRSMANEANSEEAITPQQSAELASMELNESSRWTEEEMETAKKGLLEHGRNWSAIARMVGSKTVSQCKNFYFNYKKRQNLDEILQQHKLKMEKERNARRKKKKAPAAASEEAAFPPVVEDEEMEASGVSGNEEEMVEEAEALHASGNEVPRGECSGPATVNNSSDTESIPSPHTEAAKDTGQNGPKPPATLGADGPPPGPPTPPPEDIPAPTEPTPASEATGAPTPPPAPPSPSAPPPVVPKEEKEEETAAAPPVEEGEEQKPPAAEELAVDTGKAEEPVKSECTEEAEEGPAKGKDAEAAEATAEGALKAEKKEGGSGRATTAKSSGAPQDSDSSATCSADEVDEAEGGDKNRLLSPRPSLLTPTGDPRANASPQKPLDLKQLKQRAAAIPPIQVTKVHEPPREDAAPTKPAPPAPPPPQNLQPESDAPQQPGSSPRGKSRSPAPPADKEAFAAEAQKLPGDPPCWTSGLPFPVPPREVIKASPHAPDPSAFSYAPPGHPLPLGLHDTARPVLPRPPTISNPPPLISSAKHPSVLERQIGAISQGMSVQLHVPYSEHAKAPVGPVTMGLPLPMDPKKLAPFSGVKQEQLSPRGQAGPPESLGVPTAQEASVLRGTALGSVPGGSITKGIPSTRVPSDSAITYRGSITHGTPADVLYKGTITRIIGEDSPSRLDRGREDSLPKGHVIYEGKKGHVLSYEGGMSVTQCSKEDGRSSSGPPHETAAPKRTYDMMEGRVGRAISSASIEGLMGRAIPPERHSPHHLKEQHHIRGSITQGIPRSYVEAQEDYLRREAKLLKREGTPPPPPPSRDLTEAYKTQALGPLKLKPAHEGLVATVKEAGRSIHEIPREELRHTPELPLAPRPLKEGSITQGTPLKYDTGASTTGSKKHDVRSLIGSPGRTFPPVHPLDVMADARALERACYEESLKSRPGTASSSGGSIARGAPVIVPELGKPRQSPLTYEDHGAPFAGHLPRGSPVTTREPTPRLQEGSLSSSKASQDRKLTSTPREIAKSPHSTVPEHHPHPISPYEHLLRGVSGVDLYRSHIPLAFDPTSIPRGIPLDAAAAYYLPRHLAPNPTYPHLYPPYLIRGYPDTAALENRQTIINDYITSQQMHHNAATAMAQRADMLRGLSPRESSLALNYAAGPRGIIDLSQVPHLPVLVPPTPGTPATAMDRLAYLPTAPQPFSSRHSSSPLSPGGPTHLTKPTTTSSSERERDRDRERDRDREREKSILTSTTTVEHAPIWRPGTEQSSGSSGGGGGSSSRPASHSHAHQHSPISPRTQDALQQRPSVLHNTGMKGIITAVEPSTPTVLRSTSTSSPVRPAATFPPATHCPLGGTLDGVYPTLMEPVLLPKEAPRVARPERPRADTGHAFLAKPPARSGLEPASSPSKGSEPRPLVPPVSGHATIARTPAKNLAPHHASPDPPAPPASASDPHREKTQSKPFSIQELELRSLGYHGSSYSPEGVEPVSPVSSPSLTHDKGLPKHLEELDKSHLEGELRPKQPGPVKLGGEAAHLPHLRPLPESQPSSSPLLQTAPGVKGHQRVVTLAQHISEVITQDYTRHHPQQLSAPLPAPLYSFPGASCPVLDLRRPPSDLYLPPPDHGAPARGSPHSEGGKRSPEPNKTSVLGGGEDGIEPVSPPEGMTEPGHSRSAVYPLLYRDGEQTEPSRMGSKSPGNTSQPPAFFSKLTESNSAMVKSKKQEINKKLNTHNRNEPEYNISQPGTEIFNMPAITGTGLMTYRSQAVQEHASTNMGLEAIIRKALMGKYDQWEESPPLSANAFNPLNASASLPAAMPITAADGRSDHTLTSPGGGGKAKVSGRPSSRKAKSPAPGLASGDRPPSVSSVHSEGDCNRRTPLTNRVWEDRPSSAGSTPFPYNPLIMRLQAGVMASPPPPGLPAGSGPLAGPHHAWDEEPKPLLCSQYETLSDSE

For the molecule “Gal-TIF2 (three interaction domains, human TIF2 624-869) (from UniProt Q15596) ID3 LRYLL changed to LRYAA”, the response in assay [1] (No treatment, parent: est. 0.95) amounted to 0.45; in assay [1] (Rosiglitazone, parent: est. 1.3), 0.75. In assay [1], this molecule showed an other: Fold activation of 0.5.

For “Gal-NCoR (ID1 + ID2 + ID3, mouse NCoR from 1629 to the C terminus) (from UniProt Q60974) ID3 IDVII changed to IDVAA”, the response amounted to 2.2 in assay [1] (No treatment, parent: est. 3.6) and 1.3 in assay [1] (Rosiglitazone, parent: est. 1.2). Further, the other: Dissociation ratio in assay [1] was found to be 39%.

For the molecule “Gal-SMRT (ID1 + ID2, human SMRT from 982 to the C terminus) V2097A; I2098A”, the response in assay [1] (No treatment, parent: est. 2.3) is 2.4. Besides, the other: Dissociation ratio in [1] amounted to 58%.

For the molecule “VP16-PPARγ (LBD region of PPARγ fused to the VP16 transactivation domain) (from UniProt P37231 238-503) (domain or fragment)”, in assay [2], the dissociation rate in the presence of the ligand (Rosiglitazone) was determined as 65%.

For “Gal-TIF2 (three interaction domains, human TIF2 624-869) (from UniProt Q15596) ID2 LHRLL changed to LHRAA”, the response came out at 1.3 in assay [1] (No treatment, parent: est. 1.0) and 1.7 in assay [1] (Rosiglitazone, parent: est. 1.4). In [1], this molecule displayed an other: Fold activation of 0.3.

For B1, in assay [3], the affinity, expressed as Kd, was 4.06 ± 1.01 µM.

As for B2, the fold reduction of the interaction against SMRT wt in [4] came to 6 fold. Also, the “interaction rate in the two-hybrid assay (fold), with CDK5” value in assay [5] and in [10] was 2 fold in each case. For the same molecule, the “interaction rate in the two-hybrid assay (fold), in absence of CDK5” value in assay [6] was 4 fold; in assay [7], 5 fold; in [9] it was 1.5 fold. Besides, the “interaction rate in the two-hybrid assay (fold)” value in assay [7] turned out to be 7 fold; in assay [8], 4 fold.

B3: the dissociation constant (Kd) in [11] was 55.8 ± 2.9 µM.

In the case of B4, in [12], the binding result is listed as “binds”.
